B1: EDB-L19-diS-DM1 (antibody, human IgG1, kappa)
heavy: not shown
light: EIVLTQSPGTLSLSPGERATLSCRASQSVSSSFLAWYQQKPGQAPRLLIYYASSRATGIPDRFSGSGSGTDFTLTISRLEPEDFAVYYCQQTGRIPPTFGQGTKVEIKRTVAAPSVFIFPPSDEQLKSGTASVVCLLNNFYPREAKVQWKVDNALQSGNSQESVTEQDSKDSTYSLSSTLTLSKADYEKHKVYACEVTHQGLSSPVTKSFNRGEC
B2: EDB-L19-diS-4574 (antibody, human IgG1, kappa)
heavy: not shown
light: B1 light
B3: EDB-L19-diS-C2OCO-1569 (antibody, human IgG1, kappa)
heavy: not shown
light: B1 light

What follows are binders tested against EDB+ FN on WI38-VA13 cells (human, UniProt P02751 32-2477) (assay: cell-based or functional assay).
Chain of EDB+ FN on WI38-VA13 cells (P02751 32-2477): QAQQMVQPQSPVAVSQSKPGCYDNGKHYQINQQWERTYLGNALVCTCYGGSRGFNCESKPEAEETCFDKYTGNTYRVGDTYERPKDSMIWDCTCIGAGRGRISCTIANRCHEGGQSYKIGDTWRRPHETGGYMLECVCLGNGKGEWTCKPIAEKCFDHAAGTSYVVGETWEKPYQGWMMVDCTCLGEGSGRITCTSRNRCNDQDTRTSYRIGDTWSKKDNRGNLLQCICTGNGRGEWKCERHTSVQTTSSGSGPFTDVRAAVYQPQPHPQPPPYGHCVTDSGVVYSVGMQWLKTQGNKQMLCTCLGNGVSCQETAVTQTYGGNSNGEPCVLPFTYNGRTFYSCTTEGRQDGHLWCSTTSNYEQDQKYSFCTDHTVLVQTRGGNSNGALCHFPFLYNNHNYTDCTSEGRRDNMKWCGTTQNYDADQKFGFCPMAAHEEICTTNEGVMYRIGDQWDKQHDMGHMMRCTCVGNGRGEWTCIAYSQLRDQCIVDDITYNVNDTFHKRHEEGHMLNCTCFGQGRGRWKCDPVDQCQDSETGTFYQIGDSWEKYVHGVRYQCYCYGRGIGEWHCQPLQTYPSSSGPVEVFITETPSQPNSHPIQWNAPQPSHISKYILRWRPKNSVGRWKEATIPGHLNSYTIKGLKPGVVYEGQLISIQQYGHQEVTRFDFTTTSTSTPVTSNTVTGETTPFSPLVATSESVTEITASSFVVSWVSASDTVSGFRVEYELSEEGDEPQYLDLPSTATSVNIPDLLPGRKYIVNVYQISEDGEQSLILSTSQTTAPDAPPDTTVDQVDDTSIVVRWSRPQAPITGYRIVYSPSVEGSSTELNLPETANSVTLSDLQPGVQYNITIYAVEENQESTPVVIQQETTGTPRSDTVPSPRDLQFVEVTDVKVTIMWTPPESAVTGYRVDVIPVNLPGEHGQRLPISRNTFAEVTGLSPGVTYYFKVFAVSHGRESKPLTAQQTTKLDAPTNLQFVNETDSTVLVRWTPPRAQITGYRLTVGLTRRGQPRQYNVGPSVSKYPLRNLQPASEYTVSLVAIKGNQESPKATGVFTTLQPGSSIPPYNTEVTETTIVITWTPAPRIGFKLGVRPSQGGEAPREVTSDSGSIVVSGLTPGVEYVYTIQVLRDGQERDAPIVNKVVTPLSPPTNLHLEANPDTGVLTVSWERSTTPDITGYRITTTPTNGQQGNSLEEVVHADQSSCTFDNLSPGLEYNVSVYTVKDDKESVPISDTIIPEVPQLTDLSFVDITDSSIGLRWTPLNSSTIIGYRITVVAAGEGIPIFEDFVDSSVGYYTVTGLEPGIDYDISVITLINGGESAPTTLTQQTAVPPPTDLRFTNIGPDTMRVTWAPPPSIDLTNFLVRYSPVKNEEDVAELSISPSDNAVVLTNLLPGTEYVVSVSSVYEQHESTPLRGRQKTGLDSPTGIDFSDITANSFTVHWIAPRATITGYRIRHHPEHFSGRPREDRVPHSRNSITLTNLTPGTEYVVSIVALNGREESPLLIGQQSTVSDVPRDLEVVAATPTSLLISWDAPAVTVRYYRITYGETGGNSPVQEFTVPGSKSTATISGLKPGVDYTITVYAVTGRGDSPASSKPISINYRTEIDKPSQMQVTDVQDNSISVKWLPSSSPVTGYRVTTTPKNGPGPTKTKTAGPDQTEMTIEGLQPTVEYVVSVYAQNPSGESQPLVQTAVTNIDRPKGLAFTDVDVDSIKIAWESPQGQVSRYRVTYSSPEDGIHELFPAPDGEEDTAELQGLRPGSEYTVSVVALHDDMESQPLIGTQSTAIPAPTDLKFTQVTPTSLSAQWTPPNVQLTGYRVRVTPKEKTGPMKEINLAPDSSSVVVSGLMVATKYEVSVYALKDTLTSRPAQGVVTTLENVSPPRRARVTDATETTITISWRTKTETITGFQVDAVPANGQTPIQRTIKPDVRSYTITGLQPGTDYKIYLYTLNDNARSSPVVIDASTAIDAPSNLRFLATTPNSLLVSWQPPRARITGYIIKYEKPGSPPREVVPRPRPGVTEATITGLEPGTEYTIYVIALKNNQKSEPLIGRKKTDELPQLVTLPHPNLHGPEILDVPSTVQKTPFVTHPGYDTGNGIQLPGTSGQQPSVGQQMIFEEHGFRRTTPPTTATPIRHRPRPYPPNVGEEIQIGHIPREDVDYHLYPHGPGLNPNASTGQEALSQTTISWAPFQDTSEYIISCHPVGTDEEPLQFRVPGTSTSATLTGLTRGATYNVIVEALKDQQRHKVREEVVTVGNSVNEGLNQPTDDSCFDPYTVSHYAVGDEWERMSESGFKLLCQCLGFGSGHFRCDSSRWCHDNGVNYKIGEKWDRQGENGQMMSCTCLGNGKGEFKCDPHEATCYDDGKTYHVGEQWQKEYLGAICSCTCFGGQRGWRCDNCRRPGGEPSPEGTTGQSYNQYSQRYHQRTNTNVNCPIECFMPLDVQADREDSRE

Row | Binder | Avg IC50 (ng/ml of antibody), in vitro cytotoxicity on WI38-VA13 cells [ng/mL]
1 | B1 | 268
2 | B2 | 487
3 | B3 | 21
